For one experiment, the target named is T1, GIP130a (human, UniProt Q4L180 1-1135).
T1 construct: Full length; tested as GAL4 domain fusion in yeast two-hybrid
T1 sequence: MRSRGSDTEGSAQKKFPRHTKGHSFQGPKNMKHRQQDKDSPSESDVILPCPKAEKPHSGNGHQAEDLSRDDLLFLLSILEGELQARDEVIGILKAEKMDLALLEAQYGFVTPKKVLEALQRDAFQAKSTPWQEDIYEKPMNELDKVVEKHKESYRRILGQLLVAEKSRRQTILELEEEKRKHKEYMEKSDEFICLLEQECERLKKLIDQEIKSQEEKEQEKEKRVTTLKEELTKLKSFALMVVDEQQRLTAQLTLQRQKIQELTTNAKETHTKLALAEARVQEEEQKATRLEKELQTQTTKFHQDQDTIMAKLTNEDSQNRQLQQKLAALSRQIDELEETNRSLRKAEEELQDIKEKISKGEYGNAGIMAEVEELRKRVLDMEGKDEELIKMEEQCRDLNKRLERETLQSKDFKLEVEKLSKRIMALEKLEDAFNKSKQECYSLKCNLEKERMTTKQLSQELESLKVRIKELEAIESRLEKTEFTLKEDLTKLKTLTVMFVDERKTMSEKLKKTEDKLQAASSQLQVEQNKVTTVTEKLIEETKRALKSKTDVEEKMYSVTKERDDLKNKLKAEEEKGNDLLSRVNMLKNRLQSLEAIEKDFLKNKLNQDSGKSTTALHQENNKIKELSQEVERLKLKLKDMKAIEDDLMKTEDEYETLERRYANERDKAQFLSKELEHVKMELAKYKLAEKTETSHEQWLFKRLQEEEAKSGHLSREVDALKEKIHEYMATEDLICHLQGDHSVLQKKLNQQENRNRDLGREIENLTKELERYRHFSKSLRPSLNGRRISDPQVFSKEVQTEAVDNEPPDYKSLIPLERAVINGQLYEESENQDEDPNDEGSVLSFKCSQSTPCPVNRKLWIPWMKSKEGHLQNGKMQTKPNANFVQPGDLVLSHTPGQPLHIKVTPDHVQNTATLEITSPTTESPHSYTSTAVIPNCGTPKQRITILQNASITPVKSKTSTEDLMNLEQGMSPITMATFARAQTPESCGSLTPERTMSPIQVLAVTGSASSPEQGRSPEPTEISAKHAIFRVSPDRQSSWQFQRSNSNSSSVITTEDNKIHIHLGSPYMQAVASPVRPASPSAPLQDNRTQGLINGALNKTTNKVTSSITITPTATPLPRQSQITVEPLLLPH
Briefly: yeast two-hybrid and three-hybrid (conclusion). The procedure:
(§1) Accordingly, we have observed with a yeast three-hybrid system that GPBP expression efficiently impairs both I-20 and GIP90 aggregation, and that I-20 and GIP90 efficiently impair GPBP aggregation.
(§2) Deletion mutants were obtained using specific primers and PCR, followed by cloning of the resulting cDNAs in the pGBT9 and pGAD424 vectors. The assays were performed in SFY526 or HF7c Saccharomyces cerevisiae strains, with pGBT9 as GAL4 binding domain vector and pGAD424 as GAL4 activation domain vector, by the lift colony assay procedure. Briefly, the yeast cells were co-transformed with constructs of both binding domain and activation domain vectors, and the co-transformants were selected in medium deficient in both tryptophan and leucine. After five days of incubation at 30° C. the colonies were tested for the expression of β-galactosidase with X-Gal substrate (0.75 mg/ml). […] When the assays were performed with the HF7c strain, the interactions were assessed by the lift colony assay procedure and by growth in medium deficient in histidine, tryptophan and leucine. For yeast three-hybrid system, we used the pBRIDGE vector, which allows the conditional expression of a third protein apart from the usual GAL4 binding and activation domain-fusion proteins of the two-hybrid system. In this case, the expression of GPBP or I-20 or GIP90 was driven by Met25 promoter, active in absence of methionine. In these experiments, the transformed SFY526 cells were plated in medium deficient in tryptophan, leucine and methionine, and subjected to the colony lift assay after five days at 30° C. In the case of the strain HF7c the colonies grown in the cited plates were streaked on medium with the additional deficiency of histidine.

In another experiment the target is T2, GIP130b (human, UniProt Q4L180 1-1128).
T2 construct: Full length; tested as GAL4 domain fusion in yeast two-hybrid
T2 sequence: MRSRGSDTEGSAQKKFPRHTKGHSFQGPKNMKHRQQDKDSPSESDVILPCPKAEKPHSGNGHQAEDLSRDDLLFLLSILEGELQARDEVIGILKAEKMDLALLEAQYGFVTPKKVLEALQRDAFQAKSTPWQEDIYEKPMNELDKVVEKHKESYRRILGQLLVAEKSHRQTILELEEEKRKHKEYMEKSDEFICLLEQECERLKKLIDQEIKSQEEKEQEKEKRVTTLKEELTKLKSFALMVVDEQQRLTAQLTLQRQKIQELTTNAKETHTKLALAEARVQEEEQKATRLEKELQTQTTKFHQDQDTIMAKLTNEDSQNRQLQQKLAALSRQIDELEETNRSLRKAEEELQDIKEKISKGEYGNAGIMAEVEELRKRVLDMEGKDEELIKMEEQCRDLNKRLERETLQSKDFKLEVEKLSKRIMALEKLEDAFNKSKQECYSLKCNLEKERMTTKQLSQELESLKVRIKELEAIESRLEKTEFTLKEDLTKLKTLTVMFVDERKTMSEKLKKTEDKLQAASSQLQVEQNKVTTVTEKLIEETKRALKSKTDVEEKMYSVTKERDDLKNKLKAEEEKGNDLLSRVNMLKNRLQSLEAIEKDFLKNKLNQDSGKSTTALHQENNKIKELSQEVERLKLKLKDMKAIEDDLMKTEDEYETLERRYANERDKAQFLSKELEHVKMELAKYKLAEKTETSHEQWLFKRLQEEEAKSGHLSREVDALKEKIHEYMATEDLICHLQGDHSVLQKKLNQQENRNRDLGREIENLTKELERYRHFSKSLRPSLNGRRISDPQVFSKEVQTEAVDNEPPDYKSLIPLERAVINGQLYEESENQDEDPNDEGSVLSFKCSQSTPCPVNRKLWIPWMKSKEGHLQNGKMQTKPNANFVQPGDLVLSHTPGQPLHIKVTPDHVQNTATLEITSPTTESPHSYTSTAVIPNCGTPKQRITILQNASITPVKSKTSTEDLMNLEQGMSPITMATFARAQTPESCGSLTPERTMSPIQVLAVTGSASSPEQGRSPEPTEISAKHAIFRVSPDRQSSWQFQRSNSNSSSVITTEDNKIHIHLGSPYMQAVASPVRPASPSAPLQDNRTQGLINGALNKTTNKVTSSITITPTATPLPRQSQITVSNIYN
The experiment in a line: yeast two-hybrid and three-hybrid (conclusion). Here is the method:
as §1, §2

B1: Goodpasture antigen binding protein (GPBP) (enzyme, UniProt Q9Y5P4 1-624, looked up)
chain: MSDNQSWNSSGSEEDPETESGPPVERCGVLSKWTNYIHGWQDRWVVLKNNALSYYKSEDETEYGCRGSICLSKAVITPHDFDECRFDISVNDSVWYLRAQDPDHRQQWIDAIEQHKTESGYGSESSLRRHGSMVSLVSGASGYSATSTSSFKKGHSLREKLAEMETFRDILCRQVDTLQKYFDACADAVSKDELQRDKVVEDDEDDFPTTRSDGDFLHSTNGNKEKLFPHVTPKGINGIDFKGEAITFKATTAGILATLSHCIELMVKREDSWQKRLDKETEKKRRTEEAYKNAMTELKKKSHFGGPDYEEGPNSLINEEEFFDAVEAALDRQDKIEEQSQSEKVRLHWPTSLPSGDAFSSVGTHRFVQKPYSRSSSMSSIDLVSASDDVHRFSSQVEEMVQNHMTYSLQDVGGDANWQLVVEEGEMKVYRREVEENGIVLDPLKATHAVKGVTGHEVCNYFWNVDVRNDWETTIENFHVVETLADNAIIIYQTHKRVWPASQRDVLYLSVIRKIPALTENDPETWIVCNFSVDHDSAPLNNRCVRAKINVAMICQTLVSPPEGNQEISRDNILCKITYVANVNPGGWAPASVLRAVAKREYPKFLKRFTSYVQEKTAGKPILF
notes: Protein kinase; Fusion parts are not written as pieces
In the case of B1, the binding result with GIP130a and with GIP130b was “binds” in each case.

These data come from US20030108554A1 (published 2003).
